Biological target: Spike protein on SARS-CoV-2 pseudovirus expressing luciferase (COVID-19 Pseudovirus Neutralizing Antibody Assay, Abnova) (SARS-CoV-2) (UniProt P0DTC2)
Assay: cell-based or functional assay

“Intimin-Ty1 nanobody (pIntimin-Ty1), surface displayed on E. coli Nissle 1917 or on its OMVs (VHH)” was tested, and the Pseudovirus-ACE2 receptor inhibition, OMVs at 22 µg/mL was 30 to 32%.

From patent publication US20250213666A1
